test: soluble on expression in E. coli; label from the status in PepcDB or PDB records

Sequence	soluble on expression in E. coli
MASIKEELISAAESESQVMQIVQAALEGIDMDALTSMTPGLPQTVRQTAINSLLSSKKLAIQQAPGGVLRLKVNTSEQIAGTEEEQVIYSLIEESKTRGIWIKELREGSGLNQLQLRKTLKSLETKKLIKTIKAVGTTRKCYILFSIEPDMSLTGGTFYSDQQLDSELINTLISVCGSYAASRRKHAIDENPNNIQMQREASYIRPQEIAQFITEKRVLNVPLSLEDLERILEVAVLDGTIERRADGKIRACPPRSSISPLVSVPCAICPVVEDCRPGYVISPQSCDYMKNWLADL	not soluble
GPGSMAMMLHTRRTVYSCICVHTHTHTHTCGCPPPTLSQKKKRSRLFMSSSSGDEYDPAEVTVHTTVASPSLSDTVVPSAAPFLRSAAGNASAATVAAAPALASLPKTAASVLPSSSSPTPPNTGNDVDGGYRLHSNIKGRIRCLTLNTAGTTLCAGSEDGQLCMWDFTVPLKSYRVQPTRVLTPFVNRISGLQPIIALTCASDDSYFVACQDGDSPVLVRASGEQLGYCAIGERGLMDVIQCKGHRAPVTCVAAHTHDAAAFFTGSQDGTVRLWNTATFKQRSVYAVKHGSGQLTDTHAVESVASLDSFHNGLGRVFASGGQDGRVQIWDSRVKYRPGGAIATVDMYAAAAPAGPDKVTEDPFMEKHVGGMMELHQKDAGASNASGSYGLAVRLGSAVKIIDLPQLSHSDGTTAPKAVLQERLPGCPTCSTRALCRLGAVVGLQQ	soluble
MSLAPSTYYDAKTRPPSARAQRDAVLGPALRQLWKDNYCVYGAHKLWKTARRAGYDVGRDQVARLMRAAGIQGVRRGKRVRTTKPDPVAARHPDLVKRKFTATAPNQLWVTDLTFVPTWAGVAYVCFIVDAHSRMIVGWRVASHMRTSMVLDALEMARWSRGTTLQNLICHSDAGSQFTSIRYGERLAEIGGVPSIGTVGDSFDNALAETVNGYYKAELIYGPARSGPWKTVEDVELATLSWVYWHNTSRLHSYLGDLPPAEFEAAFYDASRSGQPLVEIQEGHHHHHH	soluble
AQEVLRRTPLYDFHLAHGGKMVAFAGWSLPVQYRDSHTDSHLHTRQHCSLFDVSHMLQTKILGSDRVKLMESLVVGDIAELRPNQGTLSLFTNEAGGILDDLIVTNTSEGHLYVVSNAGCWEKDLALMQDKVRELQNQGRDVGLEVLDNALLALQGPTAAQVLQAGVADDLRKLPFMTSAVMEVFGVSGCRVTRCGYTGEDGVEISVPVAGAVHLATAILKNPEVKLAGLAARDSLRLEAGLCLYGNDIDEHTTPVEGSLSWTLGKRRRAAMDFPGAKVIVPQLKGRVQRRRVGLMCEGAPMRAHSPILNMEGTKIGTVTSGCPSPSLKKNVAMGYVPCEYSRPGTMLLVEVRRKQQMAVVSKMPFVPTNYYTLK	soluble
MRDIMSSPPITTLPMTSVKEAAKIMLENRVGSLIVVNERNTLLGILTKTDIIREVVAKGLDPESVRVGDIMTRNPYYVYTDDSVERAASLMGEHNIGHLPVLDPETEKPVGIVTKTDIVKLAPNYINVIYSLKQEIDRRERLKRIRK	soluble
MDVTALCHKIFLHIHGLISADRYSLFLVCEDSSKDKFLISRLFDVAEGSTLEEASNNCIRLEWNKGIVGHVAAFGEPLNIKDAYEDPRFNAEVDQITGYKTQSILCMPIKNHREEVVGVAQAINKKSGNGGTFTEKDEKDFAEYLAFCGEVLHNAQLYETSLLENKRNLEHHHHHH	soluble
MGSDKIHHHHHHMKEIINLDEMIMLLKTIAESSRLRLLALLYHEDLTVSDFTLVLGQSQSHVLQHLHLLYEAQLVERYQKGRSIYFKLYYGRLGKDIVMAVVSALLEHNRVIAHDLARLKDIKKQYRKQEKKYFLQNVVQWDTLRLFSIADLGVENALREIVGDKPFETMLDISRDTGSVLKLFSGLYTYAVEVVLDSDILHLSVENTTFDLVILHWVLYFLESPEVALHEIAGVLRPHGRLLIVDFVRHEVESSHSYLSHMPFGFSDLQIEQWLKNVGLILEKIICFPPLQNENNERLMVKIWLARDPRLLVDDIKDKKVEFA	not soluble
MGSDKIHHHHHHMKEYIMSFFNAPVTNKIPTCICSVAGLHTYISTNPQLEELTRKVRAGLGDKQVFRKNKQTLLPYVTPAGIFSYCKEQCMQVPSGLFVIDIDELASTEEAAMWRDRLFADEVLHPVLSFVSPGNQGVKLFIPYRINPFLSVEESFDNALHTAWEYLEWKYELKVDRANADLSRACFLSHDGEAKINNHKY	not soluble
ASWSHPQFEKIEGRDTWRYAFEEAMTDVQGVYAQKFKEEIEANSDHEIQLFPYGTLGESADIMEQTQDGILQFVDQSPGFTGSLIPEAQVFFVPYLLPTDQDHLARFFKESKAINDMFKPLYADQGLELLNMFPEGEVAMTTKTPVTTCSDLDEVKFRVMTNPLLVESYKAFGATPTPLPWGEVYGGLQTNVIQGQENPTFFLYSTKIYEVTDYITYAGHNNFTTAVMANKDFYDGLSAEDQQLVQNAALAAYDHTVVYQQQAADTELAKIMEAKPEMQVTVLTDEQRSCFKEAAAEVEAKFIEMTGDSGAAILKQMKADLAATAN	soluble
MSSPTATKYDVFLSFRGLDTRRNFISFLYKELVRRKIRTFKDDKELENGRRISPELKRAIEESKFAVVVVSVNYAASPWCLDELVKIMDFENKGSITVMPIFYGVDPCHLRRQIGDVAEQFKKHEAREEDHEKVASWRRALTSLASISGECSLKWEDEANLVDEIADKISKNLMTVTTISNGRDLVGIDTHMKALNKKLDLNSNKSLRVVGIWARGYNGRSALAKYVYQDICHWLKVGWLKVYQDIKTASKLYVLTRWLKVAHLLHRSHHSFKTE	soluble
GTQPTFGFTVNWKFSESTTVFTGQCFIDRNGKEVLKTMWLLRSSVNDIGDDWKATRVGINIFTRLRTQKEGGSGGSARKCSLTGKWTNDLGSNMTIGAVNSRGEFTGTYITAVTATSNEIKESPLHGTQNTINKSGGSTTVFTGQCFIDRNGKEVLKTMWLLRSSVNDIGDDWKATRVGINIFTRLRTQKEGGSGGSARKCSLTGKWTNDLGSNMTIGAVNSRGEFTGTYITAVTATSNEIKESPLHGTQNTINKRTQPTFGFTVNWKFSE	soluble
MSRTWIRNPLAIFTANGLDAAGGLVVEDGRIVELLGAGQQPAQPCASQFDASRHVVLPGLVNTHHHFYQTLTRAWAPVVNQPLFPWLKTLYPVWARLTPEKLELATKVALAELLLSGCTTAADHHYLFPGGLEQAIDVQAGVVEELGMRAMLTRGSMSLGEKDGGLPPQQTVQEAETILADSERLIARYHQRGDGARVQIALAPCSPFSVTPEIMRASAEVAARHDVRLHTHLAETLDEEDFCLQRFGLRTVDYLDSVGWLGPRTWLAHGIHFNAEEIRRLGEAGTGICHCPSSNMRLASGICPTVELEAAGAPIGLGVDGSASNDASNMILEARQALYLQRLRYGAERITPELALGWATRGSARLLGRSDIGELAPGKQADLALFKLDELRFSGSHDPLSALLLCAADRADRVMVGGAWRVVDGAVEGLDLAALIARHRAAASALIAG	not soluble
MKKSLKQKIVSSLLAVSLAVSLAPIGQANADSTSEIKQTSSITKQVDASRAIEHIRFLSETIGPRPGGTKSEEWASRYVGMQLKSMGYEVEYQPFQVPDQYVGFIESPLSTKRNWQTGAAPNALISTESVTAPLIFVQGGTKLEDIPNEVNGKIVLFERGTTVADYNKQVENAVSKGAKGVLLYSLIGGRGNYGQTFNPRLTKKQSIPVFGLAYAQGNAFKEEIAKKGTTILSLKARHESNLTSLNVIAKKKPKNSTGNEKAVVVSSHYDSVVGAPGANDNASGTGLVLELARAFQNVETDKEIRFIAFGSEETGLLGSDYYVNSLSPKERDRILGVFNADMVATNYDKAKNLYAMMPNGSPNLVTDAALQAGKQLNNDLVLQGKFGSSDHVPFAEVGIPAALFIWMGVDSWNPLIYHIEKVYHTPQDNVFENISPERMKMALEVIGTGVYNTLQQSVTQTEQKAA	not soluble
MKKLTKGLGILLASSLVLGLAACGGGSDDKALSTEKITIGTTAGPHQQIAEEVQKLAKKDGLEIKIKTFDDYNTPNTALNDGDLDANNYQTIPFLEQQKKDKGYKLDVAFKTVAFPMGIYSNDIKDLKNLKKGDKIAVPNDPSNEYRGLKLFEDAGVIKLKDGVEEKATKKDIAENPLDLEIVELEASQIPAQLDEVAAAAINTNFAMGAGLSINKDAIYHEPTKDNPYPNVFVVRSANKDDEVVKTLEKYYHSDEVKAFIEKEFNGSVVPAFLEHHHHHH	soluble
MSSAWKTPRGSDAMPEIMVKIIGSKHFQYLVEKPKIKENDSLKTETQTMHQKPMTDNARQMSRDTPVPINFTDQQTTDNPDDVKEKKHPENNQKSENNQKLLTGANSSRFLDGNIPSQANVHCSSVPTGDQSLSYVHGIPRRKLRDWSLEQMVRGSSDQPEDIGQSPSGTTNEDAFLLALVRRELKSRPLSSNLLEKLQKELKILDPISSGFLLQSQLSRLFLKHEVPLQLPTVKILCQRFSKRGSPEMVNYEKLLWFLNSAASDYPQQNKAAADLRKTESHGTHSQSTPPQHSSSQPEVNRSLLEILKMALRTTNGRLNIDNLNLSFRKEDRSFSGCLPLPKVRAICGKHGLYLTLSLLETLLNHQDLGYQNEIKWQNFVEMLTRASSDLLSDLPTGKNEKKAPAPPMEPEVPEMSQSKTEHMKTPEEELQPESSPAETSACKDPLKPLKIRPVSQPFVNPAVKNKAEECETWIDRFRKLENALYLCDLSNTGVLEKERARRLIHNYNLIYNLSLSPQKIDQALRRFRSGENMLLEPALRYLKEL	not soluble
MAGHSMREHEVYSKLRAPPSSRMILRLDGRGFHRLTESLDFDRPYDEAFRDLMIRTCLDLMEEFSPSLIYTFSDEINVLLDSVPFAGRVEKLDSVFSGFASSSFTRGALEAGFSPVKPVSFDCRVIPISSDIVPEYFRSRQDESWRNCLNSYAYWTLRREVGARRAAERLRGLKSDSLHDLLFERGVNISRVPAWQRRGVGVYRVPHRVRGYNPIRDEEVSAVRMRVKVDLELPLFTDEFFEGLMRLEHHHHHH	not soluble
MSNQEPYRIPKRTASDPNQSGSQGSCVRPNQEGNVKKEESVNSAPRRMFTLPSSSSTSGAQVFNPIGKCQVQTNSFKIDITKMPKRLLRLSMETRLCGGKTELNLNDGVQAVAGNLNSQEDFTTQEWSQISNYLRKKNAEFKVKISPNGFVYTNGPNSLSDANRQELPRLVEIATSEVLNTPEYLQFGNQTYAVNEPAVSSPDALSEIRSGFDKSVRLVDGENGSTEIIMTIDNKLAPFHKSTSVLKMICDKFEEIVNPARQHRGSQDRRGDRDRGYRGGRSYGHDNRRRSRSRSPQDRGDRGDRGNHHRDHNEDWDERKVKEVERRLLEEPRALGSIADALKGLIVESVHLSKDVNRNSRIKLNEGKNDEQEISVADYYLKQYNYKLKFPYLPMIVSKRFRSETMFPVELLKIVPGQKISIQKINPNVQSAMTGPNSILPSKHVRIVARILESSLKIASNPYLKTFGIRISKDPIKLEAKILSPAQLSFNKYSIMPKPGSVQFEPSREDKFFKPAKIYEVAVIAFRVVSINLSDFCMKLCDLCRRSGLEIRRETRDWIKIENFNPTSTIELKEQMKRLQQSNCSIIIGITEEKKPEVHDVLKYFEAAVGLQTMQIHSKTAGFIISGNGQTAGNVIKKLNLKCGGINYIVEVPQSFNRTVVCSNNSFVQKKLFDGTQFIGFEMTHGAARTLFDKSNGTFDGEPTIVGCAYSLQKATDLGGFNWFQEQNEYRLKNLGTHIPKCLQYYKESSGSLPEKIVIYRTGAGEGDFDRVQQEITEIRSSFAEVQEGYKPSLVVIVANKTSHLRVFPVEIREGDTAMKQNVRSGTCLDGKITSAGREEFVLISQTALISTAKPTKYTIAANDPKWSKNEVMNLTYILSFAHQVCYQPPAVPHILYAADNLAKRGRNNFIQHKKLGELSKTIQATLTKYSDLNIEMDSKELSGELVEDITKSMNVMAIKARNFWA	not soluble

Reference: the DeepSol protein solubility set
